Measurements taken from publication PMC9609998.

Key:
[1] = target: EGFR (on U87MG EGFR WT glioblastoma cells) (UniProt P00533); assay: flow cytometry; settings: U87 EGFR WT cells, 1 nM-5 µM aptamer; no/low signal on EGFR-negative LN319 cells; 2'-fluoro pyrimidines (2'F-RNA); Flow cytometry: 300,000 cells detached with 0.2 M EDTA, 30 min with Cy5-aptamer; tissue: selection buffer, 2% BSA +/- 100 µg/mL yeast tRNA block, 1 h on ice …
[2] = target: integrin α5β1 (on U87MG α5+ cells) (UniProt P08648+P05556); assay: flow cytometry; settings: 2'-fluoro pyrimidines (2'F-RNA); Flow cytometry: 300,000 cells detached with 0.2 M EDTA, 30 min with Cy5-aptamer; tissue: selection buffer, 2% BSA +/- 100 µg/mL yeast tRNA block, 1 h on ice …; cited from earlier work
Sequence of integrin α5β1 (on U87MG α5+ cells) (P08648 42-1049, chain 1 of 2): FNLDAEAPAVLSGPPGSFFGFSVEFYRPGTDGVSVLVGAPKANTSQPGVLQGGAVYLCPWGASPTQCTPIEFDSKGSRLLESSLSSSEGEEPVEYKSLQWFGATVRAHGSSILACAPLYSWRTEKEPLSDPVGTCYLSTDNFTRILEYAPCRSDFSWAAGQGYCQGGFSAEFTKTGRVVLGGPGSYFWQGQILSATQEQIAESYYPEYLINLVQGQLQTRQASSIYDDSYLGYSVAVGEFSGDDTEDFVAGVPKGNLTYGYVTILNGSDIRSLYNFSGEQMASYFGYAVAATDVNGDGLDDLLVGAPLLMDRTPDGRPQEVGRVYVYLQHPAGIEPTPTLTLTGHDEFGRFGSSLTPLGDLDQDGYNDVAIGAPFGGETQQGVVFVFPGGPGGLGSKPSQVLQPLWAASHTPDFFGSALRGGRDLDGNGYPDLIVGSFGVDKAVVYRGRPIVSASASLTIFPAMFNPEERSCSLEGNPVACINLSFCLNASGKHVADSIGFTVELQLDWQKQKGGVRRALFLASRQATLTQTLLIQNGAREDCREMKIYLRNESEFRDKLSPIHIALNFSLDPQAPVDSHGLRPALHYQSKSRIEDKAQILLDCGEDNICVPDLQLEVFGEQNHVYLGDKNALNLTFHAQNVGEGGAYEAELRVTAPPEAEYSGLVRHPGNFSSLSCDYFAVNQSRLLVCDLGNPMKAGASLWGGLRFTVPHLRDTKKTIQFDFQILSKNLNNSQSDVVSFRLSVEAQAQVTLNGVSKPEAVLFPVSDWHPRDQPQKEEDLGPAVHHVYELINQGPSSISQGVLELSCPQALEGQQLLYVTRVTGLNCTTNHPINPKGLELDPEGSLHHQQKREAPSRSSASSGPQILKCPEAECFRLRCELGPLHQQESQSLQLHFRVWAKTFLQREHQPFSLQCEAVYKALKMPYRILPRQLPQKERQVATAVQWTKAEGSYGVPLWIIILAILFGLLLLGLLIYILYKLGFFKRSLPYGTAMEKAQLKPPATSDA
Sequence of integrin α5β1 (on U87MG α5+ cells) (P05556 21-798, chain 2 of 2): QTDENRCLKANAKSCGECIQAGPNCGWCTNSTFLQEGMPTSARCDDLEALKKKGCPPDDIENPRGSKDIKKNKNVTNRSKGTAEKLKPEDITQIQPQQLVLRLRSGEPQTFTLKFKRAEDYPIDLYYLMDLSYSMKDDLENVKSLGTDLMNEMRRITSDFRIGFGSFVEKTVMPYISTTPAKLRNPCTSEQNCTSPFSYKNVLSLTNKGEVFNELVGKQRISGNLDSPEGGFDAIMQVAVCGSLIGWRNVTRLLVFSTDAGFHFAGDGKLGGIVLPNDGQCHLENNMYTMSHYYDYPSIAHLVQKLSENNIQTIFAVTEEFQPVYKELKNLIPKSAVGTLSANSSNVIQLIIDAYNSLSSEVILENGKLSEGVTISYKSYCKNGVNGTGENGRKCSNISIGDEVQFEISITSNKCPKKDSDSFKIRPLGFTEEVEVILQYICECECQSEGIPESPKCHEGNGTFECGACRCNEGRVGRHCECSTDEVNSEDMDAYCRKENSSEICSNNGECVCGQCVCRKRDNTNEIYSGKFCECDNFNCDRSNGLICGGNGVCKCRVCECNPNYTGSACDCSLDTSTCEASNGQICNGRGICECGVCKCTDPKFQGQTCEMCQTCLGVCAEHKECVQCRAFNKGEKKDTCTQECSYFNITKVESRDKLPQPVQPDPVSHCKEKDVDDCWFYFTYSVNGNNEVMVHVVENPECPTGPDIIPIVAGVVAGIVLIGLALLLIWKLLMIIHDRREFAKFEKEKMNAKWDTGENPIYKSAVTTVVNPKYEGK

Sequence	Kd [1] [nM]	Kd [2] [nM]
GGACGGAUUUAAUCGCCGUAGAAAAGCAUGUCAAAGCCGGAACCGUCC [E07-Cy5]	209	–
GGUUACCAGCCUUCACUGCGGACGGACAGAGAGUGCAACCUGCCGUGCCGCACCACGGUCGGUCACAC [H02-Cy5]	–	278
